Data: publication PMC7618510

Target: T1, HA-Halo-MRAP2 (human), Q96G30
T1 chain: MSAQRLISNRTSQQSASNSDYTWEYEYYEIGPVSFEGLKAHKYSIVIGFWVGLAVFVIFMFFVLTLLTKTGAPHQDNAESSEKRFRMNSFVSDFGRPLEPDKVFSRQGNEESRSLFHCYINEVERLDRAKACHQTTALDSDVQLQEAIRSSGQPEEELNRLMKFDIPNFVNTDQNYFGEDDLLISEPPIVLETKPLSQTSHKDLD
Assay: single-molecule pull-down (SiMPull) with photobleaching step counting; one colour: HEK293 cells expressing the HA-Halo-tagged protein alone, labelled at the surface with membrane-impermeable CA-Sulfo646, lysed in 0.5% LMNG/0.05% CHS, immobilised by the HA tag on slides with biotinylated HA antibody, single molecules imaged by TIRF
Details: remark: other sources report otherwise

- percent of molecules with a single bleaching step: 68%
- percent of molecules with three or four bleaching steps: < 5%
- percent of molecules with two bleaching steps: 28%
B1: HA-Halo-MRAP2, Q96G30 1-205 (natural protein)
chain: MSAQRLISNRTSQQSASNSDYTWEYEYYEIGPVSFEGLKAHKYSIVIGFWVGLAVFVIFMFFVLTLLTKTGAPHQDNAESSEKRFRMNSFVSDFGRPLEPDKVFSRQGNEESRSLFHCYINEVERLDRAKACHQTTALDSDVQLQEAIRSSGQPEEELNRLMKFDIPNFVNTDQNYFGEDDLLISEPPIVLETKPLSQTSHKDLD
modifications: here or on the partner: CA-Sulfo646 dye on the Halo tag; CA-Sulfo646 dye on the Halo tag
